In publication PMC7117912 one finds koff data, which are given here for 3 molecules.

Ends that are not written are not given here.

Assay [1] concerns the target H2-D^b (mouse MHC I heavy chain ectodomain) refolded with human β2-microglobulin (mouse | human). Nature of the assay: fluorescence polarisation; one-step dissociation, uncatalyzed: 300 nM MHC I loaded with TAMRA-labeled peptide, 1000-fold molar excess (300 µM) of unlabeled competitor peptide, no TAPBPR; 23°C, 1xHBS; one-phase exponential decay. Background: Polarisation of emitted light reports the rotation of a fluorescent probe.

In assay [2] the target is HLA-A*02:01 (human MHC I heavy chain ectodomain, amino acids 1-278) refolded with human β2-microglobulin (human). Nature of the assay: fluorescence polarisation.

The molecule ASNC(TAMRA)NMETM [ASNC*NMETM (fluorescently labeled high-affinity peptide for H2-D^b)] registered a koff in assay [1] of 0.0002 s⁻¹. Regarding FLPSDC(TAMRA)FPSF [FLPSDC*FPSF (fluorescently labeled medium-affinity peptide for HLA-A*02:01)], the dissociation rate constant (koff) in assay [2] was found to be 0.0019 s⁻¹. TQSC(TAMRA)NTQSI [TQSC*NTQSI (fluorescently labeled medium-affinity peptide for H2-D^b)] displayed a koff in assay [1] of 0.00253 s⁻¹.

The term koff denotes the rate constant with which the complex falls apart. Read a low koff as slow dissociation.
